Measured values taken from patent US20220064272A1 (TAUC3 BIOLOGICS, published 2022).

B1: MoTau01 mouse antibody (antibody, V domains shown)
VH: EVQVVESGGGLVQPKGSLKLSCAASGFTFNTYAMNWVRQAPGKGLEWVARIRSKSNNYATYYADSVKDRFTISRDDSQSMVYLQMNNLKTEDTAMYYCVGGGDFWGQGTALTVSS
VL: DIQMTQSPSSLSASLGERVSLTCRASQEISVYLSWFQQKPDGTIKRLIYGAFTLDSGVPKRFSGSRSGSDYSLTISSLESEDFADYYCLQYVRYPWTFGGGTKLEIK
notes: Mouse hybridoma antibody; also called mouse Tau01; murine Tau01
B2: Tau01 HCKB HuG4K (antibody, V domains shown)
VH: LVQLVESGGGLVQPGGSLKLSCAASGFTFNTYAMNWVRQASGKGLEWVGRIRSKSNNYATYYAASVKGRFTISRDDSKSMAYLQMDSLKTEDTAVYYCVGGGDFWGQGTLVTVSS
VL: DIQMTQSPSSLSASVGDRVTITCRASQEISVYLSWFQQKPGKAIKRLIYGAFTLQSGVPSRFSGSRSGSEYTLTISSLQPEDFATYYCLQYVRYPWTFGGGTKVEIK
notes: human IgG4 kappa (HuG4K)

Tests used:
[1] = target: T1, full length Tau (2N4R, htau40) (human, UniProt P10636 1-758); assay: Octet, antibody on Protein G sensor, FL Tau in solution
T1 construct: Generated and purified by Genscript; also called FL Tau; FLT
Experimental: The TauC3 and FL Tau antigens were generated and purified by Genscript and supplied at a concentration of 2.54 mg/ml or 0.24 mg/ml respectively. Binding of the chimeric antibody to TauC3 and FL Tau was assayed by binding ELISA. […] No non-specific binding to either antigen could be observed with an isotype confirming the binding observed is specific. Binding of the mouse and chimeric Tau01 antibodies to purified TauC3, was measured using Bio-Layer Interferometry (OctetRed96, ForteBio Section 8.12). The mouse and chimeric antibodies were assayed against a concentration series from 20 nM-0.31 nM TauC3 (FIGS. 8A and B). Both the mouse and chimeric antibodies were capable of binding to TauC3 in a concentration-dependent manner. The binding of the mouse and chimeric antibodies was also tested against FL Tau but low signals or no binding was observed (FIGS. 8C and D) confirming the binding of the antibodies is specific to TauC3.

[2] = target: T2, TauC3 (C-terminally truncated tau fragment ending at aspartate 421 of htau40) (human, UniProt P10636 1-738); assay: Biacore off-rate ranking, TauC3 amine-coupled on CM5, one antibody concentration; one-phase exponential decay fit
T2 construct: Generated and purified by Genscript; also called Human TauC3; recombinant TauC3 protein

[3] = target: T2, TauC3 (C-terminally truncated tau …); assay: Biacore off-rate ranking, TauC3 amine-coupled on CM5, one antibody concentration; two-phase decay fit, slow phase; set-up: unit not given here
[4] = target: T2, TauC3 (C-terminally truncated tau …); assay: Biacore kinetics, TauC3 amine-coupled on CM5, antibody series, 1:1 global fit
From the text: (§1) To determine the affinity of the binding interactions, a biacore kinetic assay was developed which involved immobilizing TauC3 on a CM5 chip via amine coupling and injecting a concentration series of the respective antibody over it.

[5] = target: T2, TauC3 (C-terminally truncated tau …); assay: binding ELISA on coated TauC3, OD650
In short: (§2)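 EC50 values come from antibody concentration-response curves in a binding ELISA on coated TauC3 antigen. The chimeric or humanized IgG4κ antibodies were produced in ExpiCHO cells, and binding was measured as absorbance at 650 nm.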

[6] = target: T2, TauC3 (C-terminally truncated tau …); assay: binding ELISA on coated TauC3, OD650; remark: listed apart in the source
In short: as §2

[7] = target: T2, TauC3 (C-terminally truncated tau …); assay: binding ELISA on coated TauC3, OD650; remark: listed apart in the source
In short: as §2

[8] = target: T2, TauC3 (C-terminally truncated tau …); assay: SPR (Biacore) kinetics, TauC3 amine-coupled on CM5, antibody as analyte
From the text: as §1

[9] = target: T2, TauC3 (C-terminally truncated tau …); assay: binding ELISA on coated TauC3, OD650; remark: listed apart in the source
In short: as §2

[10] = target: T2, TauC3 (C-terminally truncated tau …); assay: binding ELISA on coated TauC3, OD650; left table (HC variants)
In short: as §2

[11] = target: T2, TauC3 (C-terminally truncated tau …); assay: binding ELISA on coated TauC3, OD650; right table (HM variants)
In short: as §2

[12] = target: T2, TauC3 (C-terminally truncated tau …); assay: binding ELISA on coated TauC3, OD650; remark: listed apart in the source
In short: as §2

[13] = target: T1, full length Tau (2N4R, htau40); assay: Biacore, antibody captured on Protein G chip, FL Tau injected [Fig. 26B]
Experimental: To further evaluate the binding data observed on the Octet, an off-rate ranking experiment was performed on the Biacore 200 instrument. Biacore offers greater selectivity than the Octet and facilitated the immobilization of TauC3 onto a CM5 chip via amine coupling which stabilizes the antigen. This produces higher quality data with stable baselines and good reproducible responses. Once TauC3 is immobilized, one concentration (5 nM) of antibody is added, followed by a dissociation and regeneration step (Section 8.20). The off-rates were fitted using a two-phase decay model (FIG. 25B) or a one phase decay fitting only the second off-rate (FIG. 25A). The candidates were then ranked based on the off-rates obtained using the fits and compared. The data agreed with the Octet results (albeit with a different ranking order), highlighting Tau01 HMKM, HMKO, HMKP, HMKN and HMKE as the humanized variants with the slowest off-rates. The lack of binding of FL Tau to chimeric and a humanized candidate was also confirmed by Biacore by loading the antibody onto a Protein G chip and adding 250 nM FL Tau.

T2 sequence (P10636 other isoform, or with tags, fused parts or gaps): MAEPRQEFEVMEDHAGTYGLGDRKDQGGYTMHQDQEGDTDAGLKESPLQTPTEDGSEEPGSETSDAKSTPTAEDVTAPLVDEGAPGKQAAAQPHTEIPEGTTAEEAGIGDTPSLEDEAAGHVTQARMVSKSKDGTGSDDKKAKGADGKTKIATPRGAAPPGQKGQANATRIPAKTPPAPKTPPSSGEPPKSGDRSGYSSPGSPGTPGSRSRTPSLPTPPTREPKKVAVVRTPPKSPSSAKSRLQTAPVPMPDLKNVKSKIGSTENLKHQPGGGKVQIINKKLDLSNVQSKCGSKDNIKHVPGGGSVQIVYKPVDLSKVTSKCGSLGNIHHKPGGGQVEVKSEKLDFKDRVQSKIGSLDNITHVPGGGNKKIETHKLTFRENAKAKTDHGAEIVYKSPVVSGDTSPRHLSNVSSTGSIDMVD
T1 sequence (P10636 other isoform, or with tags, fused parts or gaps limits assumed): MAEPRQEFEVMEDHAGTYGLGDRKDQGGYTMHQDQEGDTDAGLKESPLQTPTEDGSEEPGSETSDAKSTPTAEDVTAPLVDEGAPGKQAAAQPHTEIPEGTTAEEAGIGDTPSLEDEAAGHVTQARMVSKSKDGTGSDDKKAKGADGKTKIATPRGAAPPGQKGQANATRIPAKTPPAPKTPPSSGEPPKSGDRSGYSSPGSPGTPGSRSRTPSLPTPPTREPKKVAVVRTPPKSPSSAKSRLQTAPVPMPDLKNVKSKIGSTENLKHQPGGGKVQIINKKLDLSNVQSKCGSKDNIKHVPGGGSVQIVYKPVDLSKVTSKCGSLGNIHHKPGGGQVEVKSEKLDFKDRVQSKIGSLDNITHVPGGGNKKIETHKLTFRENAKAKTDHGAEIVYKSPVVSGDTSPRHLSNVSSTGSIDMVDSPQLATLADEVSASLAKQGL

Binder	binding result [1]	koff [2] [s⁻¹]	Kslow [3]	Kd [4] [nM]	koff [4] [s⁻¹]	kon [4] [M⁻¹ s⁻¹]	EC50 [5] [nM]	EC50 [6] [nM]	EC50 [7] [nM]	Kd [8] [nM]	EC50 [9] [nM]	EC50 [10] [nM]	EC50 [11] [nM]	EC50 [12] [nM]	binding result [13]
B1	no binding (tested: not printed on the sheet)	–	–	–	–	–	–	–	–	–	–	–	–	–	–
B2	–	0.0114	0.012	1.24	0.0249	2.02e+07	0.84	0.502	0.502	1.2	0.502	0.73	0.73	0.628	no binding
